Laboratory results: patent US20070111260A1

Assays:
[1] = biological target: FcγRI and FcγRII on THP-1 cells; experiment: flow cytometry, antibody on THP-1 cells, FITC anti-human IgG Fab
[2] = biological target: human C1q (Quidel) (human) (UniProt P02745); experiment: ELISA: antibody captured on protein A/G, human C1q 2 ug/ml, anti-C1q detection
[3] = biological target: FcγRIIIA-streptavidin fusion protein (human; Streptomyces avidinii) (UniProt P08637); experiment: ELISA: antibody captured on protein A/G, FcγRIIIA-streptavidin (1:1000), biotin-HRP; the text speaks of IC50 values
FcγRIIIA-streptavidin fusion protein (human; Streptomyces avidinii), sequence (P08637 17-208 limits assumed): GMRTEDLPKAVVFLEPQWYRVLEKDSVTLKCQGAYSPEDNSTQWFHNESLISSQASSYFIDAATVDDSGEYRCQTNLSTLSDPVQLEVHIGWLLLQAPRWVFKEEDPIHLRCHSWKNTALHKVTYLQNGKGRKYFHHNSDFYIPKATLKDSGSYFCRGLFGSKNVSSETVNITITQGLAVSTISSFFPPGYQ

human C1q (Quidel) (human), sequence (P02745 23-245, chain 1 of 3): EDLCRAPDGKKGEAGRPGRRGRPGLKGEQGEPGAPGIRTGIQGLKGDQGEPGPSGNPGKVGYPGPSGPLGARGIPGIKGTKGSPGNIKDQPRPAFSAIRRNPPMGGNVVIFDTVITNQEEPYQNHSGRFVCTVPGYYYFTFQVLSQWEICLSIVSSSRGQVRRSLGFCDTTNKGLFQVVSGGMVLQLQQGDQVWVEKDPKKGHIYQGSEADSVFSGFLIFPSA
human C1q (Quidel) (human), sequence (P02746 28-253, chain 2 of 3, further chain): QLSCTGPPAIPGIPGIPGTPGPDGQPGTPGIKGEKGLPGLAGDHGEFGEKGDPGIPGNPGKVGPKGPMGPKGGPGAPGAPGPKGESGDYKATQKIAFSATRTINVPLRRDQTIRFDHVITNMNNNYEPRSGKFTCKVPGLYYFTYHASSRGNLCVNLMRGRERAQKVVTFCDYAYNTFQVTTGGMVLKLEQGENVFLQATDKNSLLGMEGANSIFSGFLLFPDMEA
human C1q (Quidel) (human), sequence (P02747 29-245, chain 3 of 3, further chain): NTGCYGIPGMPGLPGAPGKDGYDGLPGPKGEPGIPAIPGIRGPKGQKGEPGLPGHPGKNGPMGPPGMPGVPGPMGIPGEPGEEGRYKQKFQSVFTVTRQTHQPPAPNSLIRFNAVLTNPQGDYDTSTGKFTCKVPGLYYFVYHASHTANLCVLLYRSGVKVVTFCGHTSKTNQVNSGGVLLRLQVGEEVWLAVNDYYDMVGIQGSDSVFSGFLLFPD

Row | FcγRI&II Binding (fold less, against wild type) [1] [fold] | C1q binding (fold less, against wild type) [2] [fold] | FcγRIIIA Binding [3] [µg/mL] | Substance
1 | 9 | 2 |  | 12G3H11 anti-EphA2 antibody Fc variant K246R/L251E/T260R (soluble)
2 |  |  | 0.5 | 12G3H11 anti-EphA2 antibody Fc variant W277T (soluble)
3 |  |  | 4.93 | 12G3H11 anti-EphA2 antibody Fc variant InE240/241 (soluble) (from UniProt P01857 1-330)
